± gives the standard deviation of the averaged measurements.
Test: total protein half-life in vivo (active degradation + dilution); higher = more stable protein
[1] = E. coli NCM3722 delta-clpP delta-lon delta-hslV, growth: N-lim chemostat, doubling time 6 h
[2] = E. coli NCM3722 delta-hslV, growth: N-lim chemostat, doubling time 6 h
[3] = E. coli NCM3722 delta-lon, growth: N-lim chemostat, doubling time 6 h
[4] = E. coli NCM3722 delta-smpB, growth: N-lim chemostat, doubling time 6 h
[5] = wild type E. coli NCM3722, growth: C-lim chemostat, doubling time 3 h
[6] = wild type E. coli NCM3722, growth: C-lim chemostat, doubling time 12 h
[7] = wild type E. coli NCM3722, growth: N-lim chemostat, doubling time 6 h
[8] = wild type E. coli NCM3722, growth: N-lim chemostat, doubling time 12 h
[9] = wild type E. coli NCM3722, growth: P-lim chemostat, doubling time 6 h
[10] = wild type E. coli NCM3722, growth: P-lim chemostat, doubling time 12 h
[11] = E. coli NCM3722 delta-clpP, growth: N-lim chemostat, doubling time 6 h
[12] = wild type E. coli NCM3722, growth: C-lim chemostat, doubling time 6 h

| Sequence | total protein half-life in vivo [1] | total protein half-life in vivo [2] | total protein half-life in vivo [3] | total protein half-life in vivo [4] | total protein half-life in vivo [5] | total protein half-life in vivo [6] | total protein half-life in vivo [7] | total protein half-life in vivo [8] | total protein half-life in vivo [9] | total protein half-life in vivo [10] | total protein half-life in vivo [11] | total protein half-life in vivo [12] |
| --- | --- | --- | --- | --- | --- | --- | --- | --- | --- | --- | --- | --- |
| MMKKPVVIGLAVVVLAAVVAGGYWWYQSRQDNGLTLYGNVDIRTVNLSFRVGGRVESLAVDEGDAIKAGQVLGELDHKPYEIALMQAKAGVSVAQAQYDLMLAGYRNEEIAQAAAAVKQAQAAYDYAQNFYNRQQGLWKSRTISANDLENARSSRDQAQATLKSAQDKLRQYRSGNREQDIAQAKASLEQAQAQLAQAELNLQDSTLIAPSDGTLLTRAVEPGTVLNEGGTVFTVSLTRPVWVRAYVDERNLDQAQPGRKVLLYTDGRPDKPYHGQIGFVSPTAEFTPKTVETPDLRTDLVYRLRIVVTDADDALRQGMPVTVQFGDEAGHE | 6.76 ± 0.87 h | 6.75 ± 0.14 h | 6.47 ± 0.38 h | 6.26 ± 0.13 h | 3.39 ± 0.38 h | 11.2 ± 1.9 h | 6.2 ± 0.46 h | 13.54 ± 0.12 h | 6.02 ± 0.17 h | 14.2 ± 0.91 h |  |  |
| MTHVCSVILIRRSFDIYHEQQKISLHNESILLLEKNLADDFAFCSPDTRRLDIDELTVCHYLQNIRQLPRNLGLHSKDRLLINQSPPMPLVTAIFDSFNESGVNSPILSNMLYLSCLSMFSHKKELIPLLFNSISTVSGKVERLISFDIAKRWYLRDIAERMYTSESLIKKKLQDENTCFSKILLASRMSMARRLLELRQIPLHTIAEKCGYSSTSYFINTFRQYYGVTPHQFAQHSPGTFS | 5.33 ± 0.16 h |  |  | 0.628 h |  |  | 0.171 h |  |  |  | 1.51 h |  |
| MIINNVKLVLENEVVSGSLEVQNGEIRAFAESQSRLPEAMDGEGGWLLPGLIELHTDNLDKFFTPRPKVDWPAHSAMSSHDALMVASGITTVLDAVAIGDVRDGGDRLENLEKMINAIEETQKRGVNRAEHRLHLRCELPHHTTLPLFEKLVQREPVTLVSLMDHSPGQRQFANREKYREYYQGKYSLTDAQMQQYEEEQLALAARWSQPNRESIAALCRARKIALASHDDATHAHVAESHQLGSVIAEFPTTFEAAEASRKHGMNVLMGAPNIVRGGSHSGNVAASELAQLGLLDILSSDYYPASLLDAAFRVADDQSNRFTLPQAVKLVTKNPAQALNLQDRGVIGEGKRADLVLAHRKDNHIHIDHVWRQGKRVF |  |  |  |  |  |  |  |  | 1.05 ± 0.23 h | 1.89 ± 0.87 h |  |  |
| MKTYQGTHGVHILEYQSKINKLLCYLTNRYPRLIAVRVDLHYPKIVDNGDNICCFPNLEPGVISRMRESLRAKLEADRTRKVREDKRIYRCPLFIIWAKEYSESGKCHYHICLLFNKDAYYHLGDYDQDDNLRGMITGAWYSALRLERDDHPGLVHFPENCKYVLDTNSTDFQQNYQALLTRLDYLTKVESKVFGEGDRNFGCSQIEL |  |  |  |  |  | > 16 h |  |  |  |  |  |  |
| MPLPDFRLIRLLPLAALVLTACSVTTPKGPGKSPDSPQWRQHQQDVRNLNQYQTRGAFAYISDQQKVYARFFWQQTGQDRYRLLLTNPLGSTELELNAQPGNVQLVDNKGQRYTADDAEEMIGKLTGMPIPLNSLRQWILGLPGDATDYKLDDQYRLSEITYSQNGKNWKVVYGGYDTKTQPAMPANMELTDGGQRIKLKMDNWIVK | 5.8 ± 0.1 h |  |  | 6.06 ± 0.35 h | 3.18 ± 0.06 h | 11.8 ± 0.91 h | 6.37 ± 0.46 h | 13.22 ± 0.027 h | 6.17 ± 0.18 h | 13.7 ± 0.68 h | 6.43 ± 0.19 h | 6.24 ± 0.15 h |
| MMSLAWPLFRVTEQAALAAWPQTGCGDKNKIDGLAVTAMRQALNDVAFRGRVVIGEGEIDHAPMLWIGEEVGKGDGPEVDIAVDPIEGTRMVAMGQSNALAVMAFAPRDSLLHAPDMYMKKLVVNRLAAGAIDLSLPLTDNLRNVAKALGKPLDKLRMVTLDKPRLSAAIEEATQLGVKVFALPDGDVAASVLTCWQDNPYDVMYTIGGAPEGVISACAVKALGGDMQAELIDFCQAKGDYTENRQIAEQERKRCKAMGVDVNRVYSLDELVRGNDILFSATGVTGGELVNGIQQTANGVRTQTLLIGGADQTCNIIDSLH | 3.96 h |  |  |  |  |  |  |  |  |  |  |  |
| MSHRDTLFSAPIARLGDWTFDERVAEVFPDMIQRSVPGYSNIISMIGMLAERFVQPGTQVYDLGCSLGAATLSVRRNIHHDNCKIIAIDNSPAMIERCRRHIDAYKAPTPVDVIEGDIRDIAIENASMVVLNFTLQFLEPSERQALLDKIYQGLNPGGALVLSEKFSFEDAKVGELLFNMHHDFKRANGYSELEISQKRSMLENVMLTDSVETHKARLHNAGFEHSELWFQCFNFGSLVALKAEDAA | 4.36 ± 0.1 h | 3.422 ± 0.01 h | 4.69 ± 0.25 h | 3.28 ± 0.41 h | 2.85 ± 0.079 h | 6.64 ± 0.99 h | 3.17 ± 0.74 h | 4.86 ± 0.5 h | 4.66 ± 0.48 h | 9.24 ± 0.053 h | 4.266 ± 0.023 h | 4.75 ± 0.061 h |
| MCTTCGCGEGNLYIEGDEHNPHSAFRSAPFAPAARPKMKITGIKAPEFTPSQTEEGDLHYGHGEAGTHAPGMSQRRMLEVEIDVLDKNNRLAERNRARFAARKQLVLNLVSSPGSGKTTLLTETLMRLKDSVPCAVIEGDQQTVNDAARIRATGTPAIQVNTGKGCHLDAQMIADAAPRLPLDDNGILFIENVGNLVCPASFDLGEKHKVAVLSVTEGEDKPLKYPHMFAAASLMLLNKVDLLPYLNFDVEKCIACAREVNPEIEIILISATSGEGMDQWLNWLETQRCA [P0AAN3] | 4.03 ± 0.57 h | 2.72 ± 0.035 h | 3.48 ± 0.13 h | 3.079 ± 0.0096 h | 2.29 ± 0.11 h | 6.66 ± 0.1 h | 3.14 ± 0.63 h | 3.83 ± 0.63 h | 3.69 ± 0.052 h | 7.22 ± 0.56 h | 3.15 h | 4.19 ± 0.074 h |
| MMSTTLFKDFTFEAAHRLPHVPEGHKCGRLHGHSFMVRLEITGEVDPHTGWIIDFAELKAAFKPTYERLDHHYLNDIPGLENPTSEVLAKWIWDQVKPVVPLLSAVMVKETCTAGCIYRGE | 4.72 ± 1 h | 5.07 h | 6.5 ± 0.67 h | 5.53 ± 0.14 h |  | 12.7 ± 0.82 h | 7.08 h | 13.1 ± 1.2 h | 6.75 ± 0.27 h | 13.2 h | 6.75 ± 0.54 h | 6.53 ± 0.12 h |
| MAIALVTGGSRGIGRATALLLAQEGYTVAVNYQQNLHAAQEVMNLITQAGGKAFVLQADISDENQVVAMFTAIDQHDEPLAALVNNAGILFTQCTVENLTAERINRVLSTNVTGYFLCCREAVKRMALKNGGSGGAIVNVSSVASRLGSPGEYVDYAASKGAIDTLTTGLSLEVAAQGIRVNCVRPGFIYTEMHASGGEPGRVDRVKSNIPMQRGGQAEEVAQAIVWLLSDKASYVTGSFIDLAGGK |  | 5.67 h | 5.69 ± 0.45 h | 4.82 h | 3.03 ± 0.14 h |  | 4.66 ± 0.41 h | 8.32 ± 0.23 h | 6.41 ± 0.74 h | 11.2 ± 1.9 h | 5.48 ± 0.058 h | 5.93 h |
| MTDYAISKKSKRSLWIPILVFITLAACASAGYSYWHSHQVAADDKAQQRVVPSPVFYALDTFTVNLGDADRVLYIGITLRLKDEATRSRLSEYLPEVRSRLLLLFSRQDAAVLATEEGKKNLIAEIKTTLSTPLVAGQPKQDVTDVLYTAFILR [P0ABX8] |  |  |  |  | 1.72 ± 0.4 h | 3 ± 0.22 h |  |  |  |  |  | 2.16 ± 0.27 h |
| MPEQYRYTLPVKAGEQRLLGELTGAACATLVAEIAERHAGPVVLIAPDMQNALRLHDEISQFTDQMVMNLADWETLPYDSFSPHQDIISSRLSTLYQLPTMQRGVLIVPVNTLMQRVCPHSFLHGHALVMKKGQRLSRDALRTQLDSAGYRHVDQVMEHGEYATRGALLDLFPMGSELPYRLDFFDDEIDSLRVFDVDSQRTLEEVEAINLLPAHEFPTDKAAIELFRSQWRDTFEVKRDPEHIYQQVSKGTLPAGIEYWQPLFFSEPLPPLFSYFPANTLLVNTGDLETSAERFQADTLARFENRGVDPMRPLLPPQSLWLRVDELFSELKNWPRVQLKTEHLPTKAANANLGFQKLPDLAVQAQQKAPLDALRKFLETFDGPVVFSVESEGRREALGELLARIKIAPQRIMRLDEASDRGRYLMIGAAEHGFVDTVRNLALICESDLLGERVARRRQDSRRTINPDTLIRNLAELHIGQPVVHLEHGVGRYAGMTTLEAGGITGEYLMLTYANDAKLYVPVSSLHLISRYAGGAEENAPLHKLGGDAWSRARQKAAEKVRDVAAELLDIYAQRAAKEGFAFKHDREQYQLFCDSFPFETTPDQAQAINAVLSDMCQPLAMDRLVCGDVGFGKTEVAMRAAFLAVDNHKQVAVLVPTTLLAQQHYDNFRDRFANWPVRIEMISRFRSAKEQTQILAEVAEGKIDILIGTHKLLQSDVKFKDLGLLIVDEEHRFGVRHKERIKAMRANVDILTLTATPIPRTLNMAMSGMRDLSIIATPPARRLAVKTFVREYDSMVVREAILREILRGGQVYYLYNDVENIQKAAERLAELVPEARIAIGHGQMRERELERVMNDFHHQRFNVLVCTTIIETGIDIPTANTIIIERADHFGLAQLHQLRGRVGRSHHQAYAWLLTPHPKAMTTDAQKRLEAIASLEDLGAGFALATHDLEIRGAGELLGEEQSGSMETIGFSLYMELLENAVDALKAGREPSLEDLTSQQTEVELRMPSLLPDDFIPDVNTRLSFYKRIASAKTENELEEIKVELIDRFGLLPDPARTLLDIARLRQQAQKLGIRKLEGNEKGGVIEFAEKNHVNPAWLIGLLQKQPQHYRLDGPTRLKFIQDLSERKTRIEWVRQFMRELEENAIA | 5.59 ± 0.3 h | 5.1 ± 0.13 h | 5.12 ± 0.13 h | 5.021 ± 0.009 h | 3.07 ± 0.11 h | 11.4 ± 0.52 h | 4.9912 ± 0.001 h | 8.76 ± 0.27 h | 5.92 ± 0.57 h | 11.3 ± 0.21 h | 5.07 ± 0.12 h | 6.0491 ± 0.00051 h |

Source: the supplement of paper PMC11246515
